# B1: polymeric F1 protein (F1 capsular antigen of Yersinia pestis) (natural protein)
# chain: ADLTASTTATATLVEPARITLTYKEGAPITIMDNGNIDTELLVGTLTLGGYKTGTTSTSVNFTDAAGDPMYLTFTSQDGNNHQFTTKVIGKDSRDFDISPKVNGENLVGDDVVLATGSQDFFVRSIGSKGGKLAAGKYTDAVTVTVSNQ
# notes: also called PolyF1; polyF1
# Biological target: the molecule itself
# Experiment: SEC; Superdex 200 column; purified F1
protein,measurement,value
B1,binding result,binds

# From PMC10054699 (Vaccines, 2023)
